Test results as given in article PMC8704484.

Key:
Rep helicase [1] = biological target: T1, Rep helicase (E. coli, UniProt P09980 1-673); assay: smFRET
RecQ helicase [2] = biological target: T2, RecQ helicase (E. coli, UniProt P15043 1-609); assay: smFRET
DHX36 [3] = biological target: T3, DHX36 (Bos, UniProt Q05B79 1-1010); assay: smFRET
T3 sequence: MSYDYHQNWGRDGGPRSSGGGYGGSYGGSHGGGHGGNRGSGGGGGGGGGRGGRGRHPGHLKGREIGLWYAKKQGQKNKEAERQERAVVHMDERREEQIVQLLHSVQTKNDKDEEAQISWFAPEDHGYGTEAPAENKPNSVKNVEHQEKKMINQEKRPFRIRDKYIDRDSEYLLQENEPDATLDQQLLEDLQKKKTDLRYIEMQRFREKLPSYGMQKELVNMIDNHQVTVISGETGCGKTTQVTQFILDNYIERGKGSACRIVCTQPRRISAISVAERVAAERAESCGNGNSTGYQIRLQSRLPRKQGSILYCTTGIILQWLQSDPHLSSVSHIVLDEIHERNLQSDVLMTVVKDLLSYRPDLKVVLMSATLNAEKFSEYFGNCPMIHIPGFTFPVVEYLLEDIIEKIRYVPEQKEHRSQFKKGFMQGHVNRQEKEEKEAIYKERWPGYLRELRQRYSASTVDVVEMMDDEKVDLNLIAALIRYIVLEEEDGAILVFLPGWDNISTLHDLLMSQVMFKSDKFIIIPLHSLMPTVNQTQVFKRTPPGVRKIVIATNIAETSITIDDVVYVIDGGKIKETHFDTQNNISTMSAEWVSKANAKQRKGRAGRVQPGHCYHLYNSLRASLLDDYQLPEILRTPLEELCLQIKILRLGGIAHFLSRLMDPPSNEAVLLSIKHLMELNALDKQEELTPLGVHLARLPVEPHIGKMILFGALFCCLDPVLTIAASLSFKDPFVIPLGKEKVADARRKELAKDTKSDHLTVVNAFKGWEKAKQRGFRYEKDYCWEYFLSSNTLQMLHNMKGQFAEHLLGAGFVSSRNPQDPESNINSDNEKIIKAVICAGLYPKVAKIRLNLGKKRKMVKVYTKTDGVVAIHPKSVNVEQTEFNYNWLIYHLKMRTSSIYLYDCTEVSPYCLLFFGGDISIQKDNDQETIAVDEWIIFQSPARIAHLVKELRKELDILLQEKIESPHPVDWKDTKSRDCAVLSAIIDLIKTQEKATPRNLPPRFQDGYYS

BLM-core helicase [4] = biological target: T4, BLM-core helicase (human, UniProt P54132 642-1290); assay: smFRET
T4 sequence (P54132 642-1290): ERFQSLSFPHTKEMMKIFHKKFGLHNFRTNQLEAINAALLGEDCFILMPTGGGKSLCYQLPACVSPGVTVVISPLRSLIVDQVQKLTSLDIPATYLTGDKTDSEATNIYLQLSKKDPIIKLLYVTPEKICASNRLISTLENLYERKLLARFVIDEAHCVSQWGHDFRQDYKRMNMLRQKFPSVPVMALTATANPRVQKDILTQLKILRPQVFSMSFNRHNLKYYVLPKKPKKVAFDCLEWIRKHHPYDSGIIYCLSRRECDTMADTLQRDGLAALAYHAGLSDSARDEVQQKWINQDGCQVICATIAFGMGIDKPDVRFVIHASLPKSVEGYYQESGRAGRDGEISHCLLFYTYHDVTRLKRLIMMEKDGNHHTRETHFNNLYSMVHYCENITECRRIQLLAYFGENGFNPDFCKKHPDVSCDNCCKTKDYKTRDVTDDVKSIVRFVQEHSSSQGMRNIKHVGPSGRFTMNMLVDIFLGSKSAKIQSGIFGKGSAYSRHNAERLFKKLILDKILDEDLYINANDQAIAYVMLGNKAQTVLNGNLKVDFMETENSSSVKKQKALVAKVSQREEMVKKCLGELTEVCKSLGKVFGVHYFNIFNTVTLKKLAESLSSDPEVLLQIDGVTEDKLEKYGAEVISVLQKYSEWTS

BLM-core helicase [5] = biological target: T4, BLM-core helicase; assay: fluorescence anisotropy
Rep helicase [6] = biological target: T1, Rep helicase; assay: fluorescence anisotropy
RecQ helicase [7] = biological target: T2, RecQ helicase; assay: fluorescence anisotropy
DHX36 [8] = biological target: T3, DHX36; assay: fluorescence anisotropy
[9] = biological target: RPA (RPA1-RPA2-RPA3 heterotrimer) (human, UniProt P27694;P15927;P35244 1-616;1-270;1-121); assay: smFRET
Chain of RPA (RPA1-RPA2-RPA3 heterotrimer) (P27694 whole entry, chain 1 of 3): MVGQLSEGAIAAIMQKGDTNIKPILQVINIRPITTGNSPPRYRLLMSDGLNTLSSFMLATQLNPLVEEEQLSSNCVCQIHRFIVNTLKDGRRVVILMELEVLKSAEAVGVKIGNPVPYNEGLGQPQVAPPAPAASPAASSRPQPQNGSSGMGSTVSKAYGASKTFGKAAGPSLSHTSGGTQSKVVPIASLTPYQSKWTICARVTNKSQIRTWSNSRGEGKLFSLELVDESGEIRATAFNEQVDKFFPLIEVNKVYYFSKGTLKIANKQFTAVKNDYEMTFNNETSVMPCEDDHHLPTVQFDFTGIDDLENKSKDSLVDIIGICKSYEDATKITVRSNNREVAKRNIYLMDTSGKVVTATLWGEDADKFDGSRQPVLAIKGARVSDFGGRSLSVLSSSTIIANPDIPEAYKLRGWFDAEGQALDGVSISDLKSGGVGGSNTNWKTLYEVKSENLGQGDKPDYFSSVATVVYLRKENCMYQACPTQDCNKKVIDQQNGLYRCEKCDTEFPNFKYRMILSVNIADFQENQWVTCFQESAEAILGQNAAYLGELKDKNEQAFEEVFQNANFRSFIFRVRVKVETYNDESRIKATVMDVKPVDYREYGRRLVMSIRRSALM
Chain of RPA (RPA1-RPA2-RPA3 heterotrimer) (P15927 whole entry, chain 2 of 3): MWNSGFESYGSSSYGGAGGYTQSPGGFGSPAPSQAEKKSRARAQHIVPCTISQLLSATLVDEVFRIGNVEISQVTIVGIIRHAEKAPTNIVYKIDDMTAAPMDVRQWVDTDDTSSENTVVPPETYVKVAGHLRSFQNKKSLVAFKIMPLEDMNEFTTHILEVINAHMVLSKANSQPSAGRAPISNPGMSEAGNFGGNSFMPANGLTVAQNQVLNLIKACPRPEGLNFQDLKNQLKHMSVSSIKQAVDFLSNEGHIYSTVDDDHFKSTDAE
Chain of RPA (RPA1-RPA2-RPA3 heterotrimer) (P35244 whole entry, chain 3 of 3): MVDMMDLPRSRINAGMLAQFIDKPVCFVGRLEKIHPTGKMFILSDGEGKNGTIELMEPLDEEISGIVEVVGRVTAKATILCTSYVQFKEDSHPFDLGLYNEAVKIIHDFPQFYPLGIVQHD

T2 sequence (P15043 whole entry): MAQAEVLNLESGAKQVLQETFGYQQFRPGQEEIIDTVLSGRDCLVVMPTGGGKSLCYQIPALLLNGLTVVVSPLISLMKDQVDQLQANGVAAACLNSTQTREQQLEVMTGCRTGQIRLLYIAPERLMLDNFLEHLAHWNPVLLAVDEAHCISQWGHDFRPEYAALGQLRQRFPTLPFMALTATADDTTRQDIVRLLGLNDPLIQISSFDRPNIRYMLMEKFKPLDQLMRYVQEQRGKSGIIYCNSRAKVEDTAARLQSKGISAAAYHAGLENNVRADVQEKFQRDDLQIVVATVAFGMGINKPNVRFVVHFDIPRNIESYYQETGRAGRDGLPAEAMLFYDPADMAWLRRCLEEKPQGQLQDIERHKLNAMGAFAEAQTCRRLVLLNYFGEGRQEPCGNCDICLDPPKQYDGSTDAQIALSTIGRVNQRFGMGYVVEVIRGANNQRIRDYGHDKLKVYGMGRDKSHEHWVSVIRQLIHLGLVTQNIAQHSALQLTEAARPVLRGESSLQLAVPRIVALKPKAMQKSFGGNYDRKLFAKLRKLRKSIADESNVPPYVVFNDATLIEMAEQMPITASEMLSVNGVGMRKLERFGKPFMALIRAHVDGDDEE
T1 sequence (P09980 whole entry): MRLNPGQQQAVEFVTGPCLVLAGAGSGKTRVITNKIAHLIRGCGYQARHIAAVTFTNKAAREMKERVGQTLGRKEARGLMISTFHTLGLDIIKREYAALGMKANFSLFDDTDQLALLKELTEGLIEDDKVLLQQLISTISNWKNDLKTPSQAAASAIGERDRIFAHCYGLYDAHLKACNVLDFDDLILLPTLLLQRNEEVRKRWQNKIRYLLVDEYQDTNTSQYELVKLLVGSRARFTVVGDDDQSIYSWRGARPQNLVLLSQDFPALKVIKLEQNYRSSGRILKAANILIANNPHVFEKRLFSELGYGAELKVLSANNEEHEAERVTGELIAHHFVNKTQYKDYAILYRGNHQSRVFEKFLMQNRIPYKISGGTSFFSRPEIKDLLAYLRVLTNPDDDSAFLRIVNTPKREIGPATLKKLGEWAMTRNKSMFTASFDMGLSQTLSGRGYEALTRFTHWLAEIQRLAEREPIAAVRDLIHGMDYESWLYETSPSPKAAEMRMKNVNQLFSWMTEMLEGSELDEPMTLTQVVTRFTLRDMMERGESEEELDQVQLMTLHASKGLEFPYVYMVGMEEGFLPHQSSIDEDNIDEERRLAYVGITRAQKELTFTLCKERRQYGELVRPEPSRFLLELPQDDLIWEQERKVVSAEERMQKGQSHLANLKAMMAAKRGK

B1: d27Bcl2-IM / Stem (no loading tail) (mixed)
DNA 1: GCGTGGCACCGGTAATAGGAAATAGGATTCCCGCCCCCTTCCTCCCGCGCCCT
DNA 2: TCCTATTTCCTATTACCGGTGCCACGC
B1: binds (Rep helicase [1]); binds (RecQ helicase [2]); binds (DHX36 [3]). B1: binds (BLM-core helicase [4]).

For CCCGCCCCCTTCCTCCCGCGCCC (structured_DNA) [F-Bcl2-IM], the Kd (BLM-core helicase [5]) was 22 nM, the binding result (Rep helicase [6]) was “binds” and the binding result (RecQ helicase [7]) was “binds”. CCCGCCCCCTTCCTCCCGCGCCC (structured_DNA) [F-Bcl2-IM]: binds (DHX36 [8]).

B2: d27Bcl2-Mut / Stem (mixed)
DNA 1: GCGTGGCACCGGTAATAGGAAATAGGATTCTCTCTCTCTTCCTCTCTCGCTC
DNA 2: TCCTATTTCCTATTACCGGTGCCACGC
B2: binds [9].

B3: Duplex (24nt-F/24nt) (dsDNA)
DNA 1: GCCCTGGTGCCGACCAACGAAGGT
DNA 2: ACCTTCGTTGGTCGGCACCAGGGC
B3: no binding (BLM-core helicase [5]).

Work on GGGCGCGGGAGGAAGGGGGCGGG (structured_DNA) [F-Bcl2-G4] yielded a Kd (BLM-core helicase [5]) of 97.7 nM.
